According to paper PMC5369529, “Substrate selectivity of an isolated enoyl reductase catalytic domain from an iterative highly reducing fungal polyketide synthase reveals key components of programming” (Chemical Science, 2016):

Assays:
[1] = biological target: T1, isolated enoyl reductase (ER) domain of squalestatin tetraketide synthase (SQTKS) (Phoma sp. C2932, UniProt Q86ZD9); assay: inhibition of turnover of tigloyl pantetheine 5P; type: biochemical; details: substrate 5P, NADPH; inhibitor, not reduced
T1 construct: gene pks1; isolated ER domain only, his6-tagged, from synthetic codon-optimised phpks1, expressed in E. coli; dimer; exact borders in ESI (model begins at G1886)
T1 sequence (Q86ZD9 1887-2207 limits assumed): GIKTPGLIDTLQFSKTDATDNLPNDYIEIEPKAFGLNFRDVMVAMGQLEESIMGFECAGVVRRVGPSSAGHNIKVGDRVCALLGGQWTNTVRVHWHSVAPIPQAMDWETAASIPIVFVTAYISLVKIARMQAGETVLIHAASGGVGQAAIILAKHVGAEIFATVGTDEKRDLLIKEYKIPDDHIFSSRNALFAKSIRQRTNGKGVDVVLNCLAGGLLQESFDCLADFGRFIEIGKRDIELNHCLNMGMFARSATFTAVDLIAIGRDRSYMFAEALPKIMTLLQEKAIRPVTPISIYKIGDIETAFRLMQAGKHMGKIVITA

[2] = substrate: C/C=C(/C)C(=O)SCCNC(=O)CCNC(=O)[C@H](O)C(C)(C)CO; assay: purified protein, by the assay type; set-up: continuous spectrophotometric assay, NADPH consumption at 340 nm, initial rates fitted to Michaelis-Menten; details: 30.0 °C
[3] = substrate: C/C=C(\C)C(=O)SCCNC(=O)CCNC(=O)[C@H](O)C(C)(C)CO; assay: purified protein, by the assay type; set-up: continuous spectrophotometric assay, NADPH consumption at 340 nm, initial rates fitted to Michaelis-Menten; details: 30.0 °C
[4] = substrate: C/C=C(\CC)C(=O)SCCNC(=O)CCNC(=O)[C@H](O)C(C)(C)CO; assay: purified protein, by the assay type; set-up: continuous spectrophotometric assay, NADPH consumption at 340 nm, initial rates fitted to Michaelis-Menten; details: 30.0 °C
[5] = substrate: CC(C)CC/C=C/C(=O)SCCNC(=O)CCNC(=O)[C@H](O)C(C)(C)CO; assay: purified protein, by the assay type; set-up: continuous spectrophotometric assay, NADPH consumption at 340 nm, initial rates fitted to Michaelis-Menten; details: 30.0 °C
[6] = substrate: CC(C)CCC/C=C/C(=O)SCCNC(=O)CCNC(=O)[C@H](O)C(C)(C)CO; assay: purified protein, by the assay type; set-up: continuous spectrophotometric assay, NADPH consumption at 340 nm, initial rates fitted to Michaelis-Menten; details: 30.0 °C
[7] = substrate: CCC(C)/C=C/C(=O)SCCNC(=O)CCNC(=O)[C@H](O)C(C)(C)CO; assay: purified protein, by the assay type; set-up: continuous spectrophotometric assay, NADPH consumption at 340 nm, initial rates fitted to Michaelis-Menten; details: 30.0 °C
[8] = substrate: CCC(C)CC(C)/C=C/C(=O)SCCNC(=O)CCNC(=O)[C@H](O)C(C)(C)CO; assay: purified protein, by the assay type; set-up: continuous spectrophotometric assay, NADPH consumption at 340 nm, initial rates fitted to Michaelis-Menten; details: 30.0 °C
[9] = substrate: CCC/C=C(\C)C(=O)SCCNC(=O)CCNC(=O)[C@H](O)C(C)(C)CO; assay: purified protein, by the assay type; set-up: continuous spectrophotometric assay, NADPH consumption at 340 nm, initial rates fitted to Michaelis-Menten; details: 30.0 °C
[10] = substrate: CCC/C=C(\CC)C(=O)SCCNC(=O)CCNC(=O)[C@H](O)C(C)(C)CO; assay: purified protein, by the assay type; set-up: continuous spectrophotometric assay, NADPH consumption at 340 nm, initial rates fitted to Michaelis-Menten; details: 30.0 °C
[11] = substrate: CCC/C=C/C(=O)SCCNC(=O)CCNC(=O)[C@H](O)C(C)(C)CO; assay: purified protein, by the assay type; set-up: continuous spectrophotometric assay, NADPH consumption at 340 nm, initial rates fitted to Michaelis-Menten; details: 30.0 °C
[12] = substrate: CCCC/C=C/C(=O)SCCNC(=O)CCNC(=O)[C@H](O)C(C)(C)CO; assay: purified protein, by the assay type; set-up: continuous spectrophotometric assay, NADPH consumption at 340 nm, initial rates fitted to Michaelis-Menten; details: 30.0 °C
[13] = substrate: CCCCC/C=C/C(=O)SCCNC(=O)CCNC(=O)[C@H](O)C(C)(C)CO; assay: purified protein, by the assay type; set-up: continuous spectrophotometric assay, NADPH consumption at 340 nm, initial rates fitted to Michaelis-Menten; details: 30.0 °C
[14] = substrate: CC[C@H](C)/C=C(\C)C(=O)SCCNC(=O)CCNC(=O)[C@H](O)C(C)(C)CO; assay: purified protein, by the assay type; set-up: continuous spectrophotometric assay, NADPH consumption at 340 nm, initial rates fitted to Michaelis-Menten; details: 30.0 °C

For CC[C@H](C)C[C@H](C)/C=C/C(=O)SCCNC(=O)CCNC(=O)[C@H](O)C(C)(C)CO [1P, squalestatin tetraketide pantetheine], the “inhibition of turnover of tigloyl pantetheine 5P” value [1] was “it does act as an inhibitor of the ER in vitro”.

B1: isolated enoyl reductase (ER) domain of squalestatin tetraketide synthase (SQTKS) (Phoma sp. C2932) (protein)
chain: T1 sequence (Q86ZD9 1887-2207 limits assumed)
notes: isolated ER domain only, his6-tagged, from synthetic codon-optimised phpks1, expressed in E. coli; dimer; exact borders in ESI (model begins at G1886)
B1 gave a Km [2] of 0.44 µM, a kcat [2] of 11.4 s⁻¹ and a kcat/Km [2] of 2.59e+07 M⁻¹ s⁻¹. For the same molecule, the Km [3] was 0.69 µM, the kcat [3] was 8.9 s⁻¹ and the kcat/Km [3] was 1.29e+07 M⁻¹ s⁻¹. The Km [4] was 0.16 µM, the kcat [4] was 2.58 s⁻¹ and the kcat/Km [4] was 1.61e+07 M⁻¹ s⁻¹. The Km [5] was 0.52 µM, the kcat [5] was 5.6 s⁻¹ and the kcat/Km [5] was 1.08e+07 M⁻¹ s⁻¹. The Km [6] was 4.70 µM, the kcat [6] was 0.85 s⁻¹ and the kcat/Km [6] was 200000 M⁻¹ s⁻¹. It also gave a Km [7] of 0.18 µM, a kcat [7] of 5.9 s⁻¹ and a kcat/Km [7] of 3.28e+07 M⁻¹ s⁻¹. It also gave a Km [8] of 0.18 µM, a kcat [8] of 2 s⁻¹ and a kcat/Km [8] of 1.11e+07 M⁻¹ s⁻¹. The Km [9] was 0.54 µM, the kcat [9] was 415 s⁻¹ and the kcat/Km [9] was 7.68e+08 M⁻¹ s⁻¹. The Km [10] was 0.19 µM, the kcat [10] was 4.71 s⁻¹ and the kcat/Km [10] was 2.48e+07 M⁻¹ s⁻¹. The Km [11] was 0.23 µM, the kcat [11] was 25.9 s⁻¹ and the kcat/Km [11] was 1.13e+08 M⁻¹ s⁻¹. For the same molecule, the Km [12] was 0.18 µM, the kcat [12] was 7.11 s⁻¹ and the kcat/Km [12] was 3.95e+07 M⁻¹ s⁻¹. The Km [13] was 0.6 µM, the kcat [13] was 9 s⁻¹ and the kcat/Km [13] was 1.5e+07 M⁻¹ s⁻¹. It also gave a Km [14] of 0.41 µM, a kcat [14] of 48.8 s⁻¹ and a kcat/Km [14] of 1.19e+08 M⁻¹ s⁻¹.
